This note sets out measurements from US20130209454A1.

For test [1], the target named is HIV-1 strain AC10.0.29 envelope (gp120) (HIV-1). Description: cell-based or functional assay.
The target in test [2] is HIV-1 strain CAP210.2.00.E8 envelope (gp120) (HIV-1). Description: cell-based or functional assay.
Test [3] deals with HIV-1 strain CAP45.2.00.G3 envelope (gp120) (HIV-1). Nature of the test: cell-based or functional assay.
The target of test [4] is HIV-1 strain Du172.17 envelope (gp120) (HIV-1). Nature of the test: cell-based or functional assay.
For test [5], the target named is HIV-1 strain SC422661.8 envelope (gp120) (HIV-1). Description: cell-based or functional assay.
The target of test [6] is HIV-1 strain TRO.11 envelope (gp120) (HIV-1). Nature of the test: cell-based or functional assay.
Test [7] has as its target Env of HIV-1 strain AC10.0.29 (HIV-1). Nature of the test: cell-based or functional assay.
The target of test [8] is Env of HIV-1 strain CAP210.2.00.E8 (HIV-1). Nature of the test: cell-based or functional assay.
In test [9] the target is Env of HIV-1 strain CAP45.2.00.G3 (HIV-1). Description: cell-based or functional assay.
Test [10] deals with Env of HIV-1 strain Du172.17 (HIV-1). Description: cell-based or functional assay.
Test [11] has as its target Env of HIV-1 strain SC422661.8 (HIV-1). Nature of the test: cell-based or functional assay.
Test [12] has as its target Env of HIV-1 strain TRO.11 (HIV-1). Nature of the test: cell-based or functional assay.
Test [13] deals with the viral strains including SC422661.8, TRO0.11, CAP45.2.00G3, CAP210.2.00E8, Du172.17, and AC10.0.29. Description: cell-based or functional assay.
Test [14] deals with HIV-1 Env of strain AC10.0.29 (HIV-1). Nature of the test: cell-based or functional assay.
Test [15] deals with HIV-1 Env of strain CAP210.2.00.E8 (HIV-1). Nature of the test: cell-based or functional assay.
Test [16] addresses HIV-1 Env of strain CAP45.2.00.G3 (HIV-1). Description: cell-based or functional assay.
The target of test [17] is HIV-1 Env of strain Du172.17 (HIV-1). Description: cell-based or functional assay.
Test [18] deals with HIV-1 Env of strain SC422661.8 (HIV-1). Nature of the test: cell-based or functional assay.
Test [19] addresses HIV-1 Env of strain TRO.11 (HIV-1). Description: cell-based or functional assay.
Test [20] addresses 93TH057 gp120 core (HIV-1).
In test [21] the target is CAP244.2.00.D3 gp120 core (HIV-1).
In test [22] the target is Q259.d2.17 gp120 core (HIV-1).

B1: 12A12^Y54W IgG (antibody, name in Kabat numbering, V domains shown)
VH: SQHLVQSGTQVKKPGASVRISCQASGYSFTDYVLHWWRQAPGQGLEWMGWIKPVWGARNYARRFQGRINFDRDIYREIAFMDLSGLRSDDTALYFCARDGSGDDTSWHLDPWGQGTLVIVSA
VL: DIQMTQSPSSLSASVGDRVTITCQAGQGIGSSLQWYQQKPGKAPKLLVHGASNLHRGVPSRFSGSGFHTTFSLTISGLQRDDFATYFCAVLEFFGPGTKVEIKR
Regarding B1, the neutralization IC50 in [1] was 0.5 µg/mL; in [2], greater than 50 µg/mL; in [3], 0.2 µg/mL; in test [4], 0.1 µg/mL; in test [5], 0.2 µg/mL; in test [6] it was 0.2 µg/mL.

B2: 3BNC60 (antibody, V domains shown)
VH: QVHLSQSGAAVTKPGASVRVSCEASGYKISDHFIHWWRQAPGQGLQWVGWINPKTGQPNNPRQFQGRVSLTRQASWDFDTYSFYMDLKAVRSDDTAIYFCARQRSDFWDFDVWGSGTQVTVSS
VL: DIQMTQSPSSLSARVGDTVTITCQANGYLNWYQQRRGKAPKLLIYDGSKLERGVPARFSGRRWGQEYNLTINNLQPEDVATYFCQVYEFIVPGTRLDLKRTVA
The term IC50 denotes the concentration at which inhibition is half-maximal. Turning to B2, the IC50 in test [7] is greater than 50 µg/mL; in test [8] it was 10.6 µg/mL; in test [9], 43.2 µg/mL; in test [10] it was 1.4 µg/mL; in [11], 0.042 µg/mL; in test [12], 0.018 µg/mL. In test [13], the IC50 (averaged across the strains) stood at 0.3 µg/mL.

B3: 3BNC55 T54W IgG (antibody, name in Kabat numbering, V domains shown)
VH: QVQLVQSGTAVKRPGASVRVSCQASGYTFTDYFIYWWRQAPGQGLEWLGWINPLWSQPSYPSRFQGRLTLTRDTFDEMLYMDLRGLRSDDTGIYFCARRHSDYCDFDIWGSGTQIIVSS
VL: DIQMTQSPSSLSASVGDKVTITCQTSAGYLNWYQQRRGRAPKLLMYDGSRLVTGVPSRFSGRRWGTQYNLTIGSLQPEDIATYYCQVYEFFGPGTRLDLKS
As for B3, the neutralization IC50 in test [1] was greater than 50 µg/mL; in [2], greater than 50 µg/mL; in test [3], greater than 50 µg/mL; in [4], greater than 50 µg/mL; in [5], 0.6 µg/mL; in [6], greater than 50 µg/mL.

B4: NIH45-46 G54I IgG (antibody, name in Kabat numbering, V domains shown)
VH: QVRLSQSGGQMKKPGESMRLSCRASGYEFLNCPINWIRLAPGRRPEWMGWLKPRIGAVNYARKFQGRVTMTRDVYSDTAFLELRSLTSDDTAVYFCTRGKYCTARDYYNWDFEHWGRGAPVTVSS
VL: EIVLTQSPATLSLSPGETAIISCRTSQSGSLAWYQQRPGQAPRLVIYSGSTRAAGIPDRFSGSRWGADYNLSISNLESGDFGVYYCQQYEFFGQGTKVQVDI
As to B4, the neutralization IC50 in [14] is 8.6 µg/mL; in [15], greater than 50 µg/mL; in test [16], greater than 50 µg/mL; in [17], greater than 50 µg/mL; in test [18], 0.1 µg/mL; in test [19] it was 10 µg/mL.

B5: NIH45-46 G54L IgG (antibody, name in Kabat numbering, V domains shown)
VH: QVRLSQSGGQMKKPGESMRLSCRASGYEFLNCPINWIRLAPGRRPEWMGWLKPRLGAVNYARKFQGRVTMTRDVYSDTAFLELRSLTSDDTAVYFCTRGKYCTARDYYNWDFEHWGRGAPVTVSS
VL: EIVLTQSPATLSLSPGETAIISCRTSQSGSLAWYQQRPGQAPRLVIYSGSTRAAGIPDRFSGSRWGADYNLSISNLESGDFGVYYCQQYEFFGQGTKVQVDI
For the molecule B5, the neutralization IC50 in [14] was 1.7 µg/mL; in test [15], greater than 50 µg/mL; in test [16] it was greater than 50 µg/mL; in [17] it was greater than 50 µg/mL; in [18], 0.1 µg/mL; in test [19] it was 0.3 µg/mL.

B6: NIH45-46 G54M IgG (antibody, name in Kabat numbering, V domains shown)
VH: QVRLSQSGGQMKKPGESMRLSCRASGYEFLNCPINWIRLAPGRRPEWMGWLKPRMGAVNYARKFQGRVTMTRDVYSDTAFLELRSLTSDDTAVYFCTRGKYCTARDYYNWDFEHWGRGAPVTVSS
VL: EIVLTQSPATLSLSPGETAIISCRTSQSGSLAWYQQRPGQAPRLVIYSGSTRAAGIPDRFSGSRWGADYNLSISNLESGDFGVYYCQQYEFFGQGTKVQVDI
Take B6: the neutralization IC50 in test [14] is 1.5 µg/mL; in test [15], greater than 50 µg/mL; in [16], greater than 50 µg/mL; in test [17], greater than 50 µg/mL; in test [18], 0.06 µg/mL; in [19] it was 0.3 µg/mL.

B7: NIH45-46 G54H IgG (antibody, name in Kabat numbering, V domains shown)
VH: QVRLSQSGGQMKKPGESMRLSCRASGYEFLNCPINWIRLAPGRRPEWMGWLKPRHGAVNYARKFQGRVTMTRDVYSDTAFLELRSLTSDDTAVYFCTRGKYCTARDYYNWDFEHWGRGAPVTVSS
VL: EIVLTQSPATLSLSPGETAIISCRTSQSGSLAWYQQRPGQAPRLVIYSGSTRAAGIPDRFSGSRWGADYNLSISNLESGDFGVYYCQQYEFFGQGTKVQVDI
In the case of B7, the neutralization IC50 in test [14] was 0.6 µg/mL; in [15] it was greater than 50 µg/mL; in test [16] it was greater than 50 µg/mL; in test [17] it was greater than 50 µg/mL; in [18], 0.09 µg/mL; in test [19], 0.2 µg/mL.

B8: NIH45-46^G54W Fab (C-terminal 6x-His tagged heavy chain, SPR) (Fab, V domains shown)
VH: QVRLSQSGGQMKKPGESMRLSCRASGYEFLNCPINWIRLAPGRRPEWMGWLKPRWGAVNYARKFQGRVTMTRDVYSDTAFLELRSLTSDDTAVYFCTRGKYCTARDYYNWDFEHWGRGAPVTVSS
VL: EIVLTQSPATLSLSPGETAIISCRTSQSGSLAWYQQRPGQAPRLVIYSGSTRAAGIPDRFSGSRWGADYNLSISNLESGDFGVYYCQQYEFFGQGTKVQVDI
The term Kd denotes the concentration at which binding is half-saturated. A higher Kd goes with a looser complex. For orientation: koff means the first-order rate constant of dissociation. Higher therefore signals fast dissociation. A word on the kon: it is the second-order rate constant of association. Low readings indicate slow association, high ones fast association. In test [20], B8 returned a Kd of 63 nM, a koff of 0.0016 s⁻¹ and a kon of 26000 M⁻¹ s⁻¹. In [21], this molecule had a Kd of 37 nM and a kon of 22000 M⁻¹ s⁻¹. In test [22], this molecule returned a Kd of 48 nM, a koff of 0.0017 s⁻¹ and a kon of 34000 M⁻¹ s⁻¹.
